Measurements reported in paper PMC4419512.
pKd: −log10 of the molar value.

What was measured:
[1] = biological target: HIV-1 subtype C COT6.15 envelope (Env) on pseudovirus (HIV-1 subtype C)
[2] = biological target: HIV-1 subtype C Du156.12 envelope (Env) on pseudovirus (HIV-1 subtype C)
[3] = biological target: HIV-1 subtype C Du179.14 envelope (Env) on pseudovirus (HIV-1 subtype C)
[4] = biological target: HIV-1 subtype C CAP206.8 envelope (Env) on pseudovirus (HIV-1 subtype C)
[5] = biological target: HIV-1 subtype B QH0692.42 envelope (Env) on pseudovirus (HIV-1 subtype B)
[6] = biological target: HIV-1 subtype B CAAN5342.A2 envelope (Env) on pseudovirus (HIV-1 subtype B)
[7] = biological target: HIV-1 subtype A Q168.a2 envelope (Env) on pseudovirus (HIV-1 subtype A)
[8] = biological target: HIV-1 subtype B PVO.4 envelope (Env) on pseudovirus (HIV-1 subtype B)
[9] = biological target: HIV-1 subtype C DU151.2 envelope (Env) on pseudovirus (HIV-1 subtype C)
[10] = biological target: HIV-1 subtype A Q23.7 envelope (Env) on pseudovirus (HIV-1 subtype A)
[11] = biological target: HIV-1 subtype B JR-FL envelope (Env) on pseudovirus (HIV-1 subtype B) (UniProt Q75760)
[12] = biological target: HIV-1 RF envelope glycoprotein (Env) on virus (HIV-1 (RF)) (UniProt P04579)
[13] = biological target: monomeric, glycosylated, baculovirus-produced HIV-1 IIIB gp120 (HIV-1 (IIIB)); assay: ITC; lectin (180 μM) in the syringe, gp120 (2.5 μM) in the cell; 55 injections of 5 μl, 600 s spacing, 300 rpm, 30°C; VP-ITC

Substance | IC50 of neutralisation, single cycle Tzm-bl pseudovirus assay [1] [nM] | IC50 of neutralisation, single cycle Tzm-bl pseudovirus assay [2] [nM] | IC50 of neutralisation, single cycle Tzm-bl pseudovirus assay [3] [nM] | IC50 of neutralisation, single cycle Tzm-bl pseudovirus assay [4] [nM] | IC50 of neutralisation, single cycle Tzm-bl pseudovirus assay [5] [nM] | IC50 of neutralisation, single cycle Tzm-bl pseudovirus assay [6] [nM] | IC50 of neutralisation, single cycle Tzm-bl pseudovirus assay [7] [nM] | IC50 of neutralisation, single cycle Tzm-bl pseudovirus assay [8] [nM] | IC50 of neutralisation, single cycle Tzm-bl pseudovirus assay [9] [nM] | IC50 of neutralisation, single cycle Tzm-bl pseudovirus assay [10] [nM] | IC50 of neutralisation, single cycle Tzm-bl pseudovirus assay [11] [nM] | Anti-HIV EC50: concentration at which 50% of CEM-SS cells are protected from the cytopathic effects of HIV-1RF infection (XTT assay) [12] [nM] | pKd [13] | dH [13] [kcal/mol]
4mGRFT, tandem repeat of four mGRFT (1GS-S) domains joined by Gly-Thr-Gly linkers (designed binder) | 0.273 | 0.0887 | 0.0934 | 0.164 | 0.17 | 0.232 | 0.273 | 0.185 | 0.3 | 0.276 | 0.287 | 0.0012 | – | –
monomeric griffithsin mGRFT (1GS-S) (from UniProt P84801 16-121) (natural protein) | – | – | – | – | – | – | – | – | – | – | – | 119 | 6.95 | -35.5
griffithsin (GRFT), native domain-swapped homodimer (from UniProt P84801 1-121) (natural protein) | 0.734 | 0.0324 | 0.606 | 2.14 | 0.0473 | 7.34 | 3.8 | 0.037 | 1.49 | 1.19 | 0.922 | 0.0138 | 8.10 | -30.4
2mGRFT3, tandem repeat of two mGRFT (1GS-S) domains joined by a (Gly-Thr-Gly)3 linker (designed binder) | 2.54 | 0.0616 | 0.144 | 0.696 | 0.513 | 16.9 | 5.28 | 0.558 | 1.7 | 7.16 | 5.77 | 0.0026 | 8.52 | -47.2
2mGRFT, tandem repeat of two mGRFT (1GS-S) domains joined by a Gly-Thr-Gly linker (designed binder) | 1.46 | 0.0182 | 0.158 | 0.178 | 0.202 | 5.27 | 1.55 | 0.301 | 0.694 | 7.26 | 2.09 | 0.0027 | 8.30 | -69.6
3mGRFT, tandem repeat of three mGRFT (1GS-S) domains joined by Gly-Thr-Gly linkers (designed binder) | 0.412 | 0.0794 | 0.124 | 0.181 | 0.223 | 0.326 | 0.331 | 0.27 | 0.308 | 0.432 | 0.325 | 0.001 | 8.52 | -74.4
